This is an account of results in US20250179208A1 (ZONHON BIOPHARMA INSTITUTE, published 2025).

By Kd is commonly meant a measure of binding affinity in units of concentration. As a reminder, the koff is the rate constant with which the complex falls apart. By kon is commonly meant the second-order rate constant of association.

Assay [1] deals with T1, CD26 on CD26 positive human tumor cells (human, UniProt P27487 1-766). The experiment in a line: cell-based or functional assay.
Assay [2] has as its target T1, CD26 on CD26 positive human tumor cells. The assay can be described thus: cell-based or functional assay. The source holds these as a separate data set.
The target in assay [3] is T2, CD3 protein.
T2 chain 1: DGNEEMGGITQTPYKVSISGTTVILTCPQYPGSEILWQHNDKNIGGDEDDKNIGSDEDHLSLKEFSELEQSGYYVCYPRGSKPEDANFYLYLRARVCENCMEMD
T2 chain 2: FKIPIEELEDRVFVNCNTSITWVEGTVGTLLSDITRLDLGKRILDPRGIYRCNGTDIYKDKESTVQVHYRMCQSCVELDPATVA
The assay can be described thus: BLI (Octet QKe), CD3 amine-coupled on AR2G sensor, antibody at 181.8 nM. The procedure: The affinity of chimeric antibodies to antigen protein CD3 was determined by Fortebio Intermolecular Interaction Octet QKe instrument. First, the amino-coupled biosensor AR2G was activated with EDC/s-NHS, and the activated biosensor AR2G was solidified in CD3 protein solution diluted with 10 mM sodium acetate (pH 5.0) solution. The biosensor solidified with CD3 was quenched in 1M ethanolamine (pH8.5) solution. Then equilibrated in 1× kinetic solution. After equilibration, it was bound to bispecific antibody solution. They were dissociated in 1×kinetic solution. Fortebio Data Analysis 8.0 software was used to analyze the data and calculate the affinity constant value (KD).
In general terms: In BLI a coated tip is dipped into the sample, and binding shifts an interference pattern.

The target of assay [4] is T3, CD26 protein (recombinant human CD26) (human, UniProt P27487 29-766, limits assumed).
T3 construct: Amine-coupled, biotinylated or HRP-labeled according to the assay; also called DPP4; rCD26
The assay can be described thus: BLI (Octet QKe), CD26 amine-coupled on AR2G sensor, antibody at 181.8 nM. The procedure:
The affinity of the chimeric antibody to the antigen protein CD26 was detected by Fortebio Intermolecular Interaction Octet QKe instrument. First, the amino-coupled biosensor AR2G was activated with EDC/s-NHS, and the activated biosensor AR2G was solidified in CD26 protein solution diluted with 10 mM sodium acetate (pH 5.0) solution. The biosensor solidified with CD26 was quenched in 1M ethanolamine (pH8.5) solution. Then equilibrated in 1× kinetic solution. After equilibration, it was bound to a humanized bispecific antibody solution. It was dissociated in 1× kinetic solution. Fortebio Data Analysis 8.0 software was used to analyze the data and calculate the affinity constant (KD), association rate constant (kon) and dissociation rate constant (kdis). The Response value represents the number of antibody molecules that can bind to the antigen. Kon indicates the binding speed of the antibody to the corresponding receptor. Kdis represents the dissociation speed of antibody from corresponding receptor. NA indicates no valid data.

The target of assay [5] is T2, CD3 protein. The assay can be described thus: BLI (Octet), biotinylated CD3 on SA sensor, antibody 200-1600 nM. The procedure: CD3 protein was biotinylated with EZ-link NHS-PEG12-Biotin. Biotinylated CD3 protein was immobilized to SA biosensor. Equilibrated in 1×Kinetics solution. The CD3 immobilized to SA biosensor was combined with the humanized bispecific antibody solution to be detected. The concentration gradient of humanized bispecific antibody was 200 nM, 400 nM, 800 nM, and 1600 nM. The biosensor was dissociated in 1×Kinetics solution. Fortebio Data Analysis 8.0 software was used for data analysis and affinity constant values were calculated.

For assay [6], the target named is T3, CD26 protein (recombinant human CD26). The experiment in a line: BLI (Octet), biotinylated CD26 on SA sensor, antibody 31.3-500 nM. The procedure: CD26 protein was biotinylated with EZ-link NHS-PEG12-Biotin. Biotinylated CD26 protein was immobilized to SA biosensor. Equilibrated in 1×Kinetics solution. The CD26 immobilized to SA biosensor was combined with the antibody solution to be detected. The concentration gradients of the antibody solution were 31.3 nM, 62.5 nM, 125 nM, 250 nM, and 500 nM. The biosensor was dissociated in 1×Kinetics solution. Fortebio Data Analysis 8.0 software was used for data analysis and affinity constant values were calculated.

Assay [7] has as its target T1, CD26 on CD26 positive human tumor cells. The assay can be described thus: cell-based or functional assay. The source holds these as a separate data set.
The target is the same in assay [8]. The assay can be described thus: cell-based or functional assay. This is another data set of the same source.

Like-named read-outs stand apart in the source and are kept apart here.

B1: YS110 (humanized anti-CD26 full-length IgG antibody) (antibody, V domains shown)
VH: EVQLVESGAGVKQPGGTLRLTCTASGFSLTTYGVHWVRQAPGKGLEWVGVIWGDGRTDYDAAFMSRVTISKDTSKSTVYLQMNSLRAEDTAVYYCMRNRHDWFDYWGQGTTVTVSS
VL: DILLTQSPSSLSATPGERATITCRASQGIRNNLNWYQQKPGQAPRLLIYYSSNLQSGVPSRFSGSGSGTDFTLTISRLQPEDVAAYYCQQSIKLPFTFGSGTKVEIK
For the molecule B1, in assay [1], the “IC50 of antibody mediated PBMC cytotoxicity against 786-0 cells” value was above 100 ng/mL, the “IC50 of antibody mediated PBMC cytotoxicity against NCI-H226 cells” value is above 100 ng/mL, the “IC50 of antibody mediated PBMC cytotoxicity against OS-RC-2 cells” value was above 100 ng/mL and the “IC50 of antibody mediated PBMC cytotoxicity against PC-3 cells” value is above 100 ng/mL. In addition, the “cell lysis rate, antibody mediated PBMC cytotoxic effect on 786-0 cells (100 ng/ml, 5 h)” value (“cell lysis rate” below) in assay [2] was 56.6%.

B2: 17G61 (anti-CD26-CD3 chimeric bispecific antibody derived from No. 62 mouse antibody) (bispecific antibody)
chain: DIVMTQAAPSVSVTPGESVSISCRSDKSLLHSNGNTYLYWFLQRPGQSPQVLIYRMSNLASGVPDRFSGSGSGTGFTLRVSRVEAEDVGVYYCFQQLEYPYTFGGGTKLEIKGGGGSGGGGSGGGGSEVQLQQSGAELVKPGASVKLSCTASGFNIKDTYIYWVKQRPGQGLEWIGRIEPMNGNTKYDPKFQGKATMTANTSSNTAYLHLSSLASEDTAVYFCSRGGWLLLYVMDYWGQGTSVTVSSGGGGSDVQLVQSGAEVKKPGASVKVSCKASGYTFTRYTMHWVRQAPGQGLEWIGYINPSRGYTNYADSVKGRFTITTDKSTSTAYMELSSLRSEDTATYYCARYYDDHYCLDYWGQGTTVTVSSGGGGSGGGGSGGGGSDIVLTQSPATLSLSPGERATLSCRASQSVSYMNWYQQKPGKAPKRWIYDTSKVASGVPARFSGSGSGTDYSLTINSLEAEDAATYYCQQWSSNPLTFGGGTKVEIK
notes: also called chimeric BiTE
In assay [3], B2 showed a Kd of 8.87 nM, an off-rate (koff) of 0.00159 s⁻¹ and a kon of 179000 M⁻¹ s⁻¹. Also, in assay [4], the dissociation constant Kd was found to be 17.3 nM, the Response is 0.849, the koff stood at 0.000331 s⁻¹ and the kon was found to be 19100 M⁻¹ s⁻¹.

B3: 21G587 (19G294 anti-CD26 scFv joined to the WBP3311_2.306.4 anti-CD3 scFv) (bispecific antibody)
chain: EVQLVQSGAELVKPGASVKLSCAASGFNIKDTYIYWVRQAPGQGLEWVGRIEPMNGNTKYDPKFQGRFTMTANTSKNTAYLQLSSLRSEDTAVYYCSRGGWLLLYVMDYWGQGTLVTVSSGGGGSGGGGSGGGGSDIVMTQSPSSLSVTPGERVSISCRSDKSLLHSNGNTYLYWFLQKPGQSPQVLIYRMSNLASGVPDRFSGSGSGTDFTLTISRVEAEDVGVYYCFQQLEYPYTFGQGTKLEIKGGGGSQVQLVQSGAEVKKPGSSVKVSCKASGFAFTDYYIHWVRQAPGQGLEWMGWISPGNVNTKYNENFKGRVTITADKSTSTAYMELSSLRSEDTAVYYCARDGYSLYYFDYWGQGTLVTVSSGGGGSGGGGSGGGGSDIVMTQSPDSLAVSLGERATINCKSSQSLLNSRTRKNYLAWYQQKPGQPPKLLIYWASTRQSGVPDRFSGSGSGTDFTLTISSLQAEDVAVYYCTQSHTLRTFGGGTKVEIK
In assay [5], B3 yielded a Kd of 0.683 nM, an off-rate (koff) of 8.71e-05 s⁻¹ and a kon of 128000 M⁻¹ s⁻¹. For the same molecule, in assay [6], the Kd came to 0.352 nM, the koff worked out at 4.01e-05 s⁻¹ and the on-rate (kon) is 114000 M⁻¹ s⁻¹. In assay [7], the “EC50 of antibody mediated cytotoxicity of PBMC against 786-0-LUC cells (luciferase reporter)” value was 2.49 ng/mL and the “EC50 of antibody mediated cytotoxicity of PBMC against A498-LUC cells (luciferase reporter)” value came out at 5.4 ng/mL.

B4: No. 62 mouse antibody (antibody, V domains shown)
VH: EVQLQQSGAELVKPGASVKLSCTASGFNIKDTYIYWVKQRPGQGLEWIGRIEPMNGNTKYDPKFQGKATMTANTSSNTAYLHLSSLASEDTAVYFCSRGGWLLLYVMDYWGQGTSVTVSS
VL: DIVMTQAAPSVSVTPGESVSISCRSDKSLLHSNGNTYLYWFLQRPGQSPQVLIYRMSNLASGVPDRFSGSGSGTGFTLRVSRVEAEDVGVYYCFQQLEYPYTFGGGTKLEIKR
Consider B4, for which the “cell lysis rate” value in assay [2] was 53.1%.

B5: 19G294 (anti-CD26-CD3 humanized bispecific antibody derived from No. 62 mouse antibody) (bispecific antibody)
chain: DIVMTQSPSSLSVTPGERVSISCRSDKSLLHSNGNTYLYWFLQKPGQSPQVLIYRMSNLASGVPDRFSGSGSGTDFTLTISRVEAEDVGVYYCFQQLEYPYTFGQGTKLEIKGGGGSGGGGSGGGGSEVQLVQSGAELVKPGASVKLSCAASGFNIKDTYIYWVRQAPGQGLEWVGRIEPMNGNTKYDPKFQGRFTMTANTSKNTAYLQLSSLRSEDTAVYYCSRGGWLLLYVMDYWGQGTLVTVSSGGGGSDVQLVQSGAEVKKPGASVKVSCKASGYTFTRYTMHWVRQAPGQGLEWIGYINPSRGYTNYADSVKGRFTITTDKSTSTAYMELSSLRSEDTATYYCARYYDDHYCLDYWGQGTTVTVSSGGGGSGGGGSGGGGSDIVLTQSPATLSLSPGERATLSCRASQSVSYMNWYQQKPGKAPKRWIYDTSKVASGVPARFSGSGSGTDYSLTINSLEAEDAATYYCQQWSSNPLTFGGGTKVEIK
notes: also called 19G294 BiTE
Consider B5, for which, in assay [1], the “IC50 of antibody mediated PBMC cytotoxicity against 786-0 cells” value was 0.26 ng/mL, the “IC50 of antibody mediated PBMC cytotoxicity against HCC 827 cells” value amounted to 0.546 ng/mL, the “IC50 of antibody mediated PBMC cytotoxicity against NCI-H226 cells” value came to 0.752 ng/mL and the “IC50 of antibody mediated PBMC cytotoxicity against NCI-H2052 cells” value was found to be 5.05 ng/mL. Besides, in assay [1], the “IC50 of antibody mediated PBMC cytotoxicity against OS-RC-2 cells” value worked out at 0.545 ng/mL and the “IC50 of antibody mediated PBMC cytotoxicity against PC-3 cells” value worked out at 0.22 ng/mL. In addition, in assay [5], binding was put at a Kd of 0.751 nM, the koff is 0.000178 s⁻¹ and the on-rate constant (kon) was found to be 238000 M⁻¹ s⁻¹. For the same molecule, in assay [6], the dissociation constant (Kd) is 0.914 nM, the koff is 8.45e-05 s⁻¹ and the kon came out at 92400 M⁻¹ s⁻¹. In assay [7], the “EC50 of antibody mediated cytotoxicity of PBMC against 786-0-LUC cells (luciferase reporter)” value is 1.43 ng/mL and the “EC50 of antibody mediated cytotoxicity of PBMC against A498-LUC cells (luciferase reporter)” value was 4.15 ng/mL. In assay [8], the “EC50 of antibody mediated cytotoxicity of PBMC against 786-0-LUC cells (luciferase reporter)” value was 2.62 ng/mL and the “EC50 of antibody mediated cytotoxicity of PBMC against A498-LUC cells (luciferase reporter)” value worked out at 3.21 ng/mL.

B6: 17G105 (anti-CD26-CD3 chimeric bispecific antibody derived from No. 72 mouse antibody) (bispecific antibody)
chain: DIVLTQSPASLAVSLGQRATISCRASESVEYYGTSLMQWYQQKPGQPPKLLIYTASNVESGVPVRFSGSGSGTDFSLNIHPVEEDDIAMYFCQQSRKVPYTFGGGTKLEIKGGGGSGGGGSGGGGSQVQLQQSGPELMKPGASVKISCKATGYSFSGFWIEWVKQRPGHGLEWIGEILPGSGASNYHENFKGRATITADTSANTAYMQLRSLTSEDSAVYYCARERYYGSKYFDVWGAGTTVTVSSGGGGSDVQLVQSGAEVKKPGASVKVSCKASGYTFTRYTMHWVRQAPGQGLEWIGYINPSRGYTNYADSVKGRFTITTDKSTSTAYMELSSLRSEDTATYYCARYYDDHYCLDYWGQGTTVTVSSGGGGSGGGGSGGGGSDIVLTQSPATLSLSPGERATLSCRASQSVSYMNWYQQKPGKAPKRWIYDTSKVASGVPARFSGSGSGTDYSLTINSLEAEDAATYYCQQWSSNPLTFGGGTKVEIK
notes: also called chimeric BiTE
Turning to B6, in assay [3], the Kd is 2.18 nM, the dissociation rate constant (koff) came out at 0.000672 s⁻¹ and the kon came to 309000 M⁻¹ s⁻¹. In assay [4], the equilibrium dissociation constant (Kd) amounted to 39.3 nM, the Response came to 0.498, the koff is 0.00126 s⁻¹ and the kon came to 32000 M⁻¹ s⁻¹.

B7: No. 212 mouse antibody (antibody, V domains shown)
VH: EVQLQEAGPSLVKPSQTLSLTCFVTGDSITSGYWHWIRKFPGNKLEYMGYINYSGYTYYNPSLKSRFSITRDTSKNQYYLQLNSVTTEDTATYYCTSERNWGAFAYWGQGTLITVSS
VL: ENVLTQSPAIMSASPGEKVTMTCRASSSVISTYLHWYQQKSGASPKLWIYSTSNLASGVPARFSGSGSGTSYSLTISSVEAEDAATYYCQQFSGYPYTFGGGTKLEIK
Regarding B7, the “cell lysis rate” value in assay [2] amounted to 11.3%.
